The text below walks through data of paper PMC3564530 (Molecular Biology of the Cell, 2013).

The experiment deals with recombinant his6-tagged linear penta-Ub (Ub5) (UniProt P0CG48). Nature of the experiment: pull-down.
Sequence of recombinant his6-tagged linear penta-Ub (Ub5) (P0CG48 1-380): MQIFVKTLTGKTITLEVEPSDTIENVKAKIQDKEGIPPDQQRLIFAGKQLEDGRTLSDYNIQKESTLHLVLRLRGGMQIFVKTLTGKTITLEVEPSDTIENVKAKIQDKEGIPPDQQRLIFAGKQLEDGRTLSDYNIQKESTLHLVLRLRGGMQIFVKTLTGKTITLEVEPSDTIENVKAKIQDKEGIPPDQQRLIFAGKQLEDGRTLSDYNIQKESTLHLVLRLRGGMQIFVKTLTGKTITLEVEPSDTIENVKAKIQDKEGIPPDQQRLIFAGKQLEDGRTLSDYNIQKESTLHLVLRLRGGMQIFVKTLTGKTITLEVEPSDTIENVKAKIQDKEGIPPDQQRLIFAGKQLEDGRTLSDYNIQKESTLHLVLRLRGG

B1: recombinant purified GST-CIN exon 2 (domain or fragment)
chain: TGSLAAAVETASGRQALVVGKPSPYMFECITENFSIDPARTLMVGDRLETDILFGHRCGMTTVLTLTGVSRLEEAQAYLAAGQHDLVPHYYVESIADLTEGLED
In the case of B1, the binding result is “binds”.
